Results published in the supplement of paper PMC7877785.
± gives the uncertainty stated by the source.

Experiment: self-splicing fitness, log relative to wild type (ln ratio); higher = more splicing; Tetrahymena group I intron in knt gene, E. coli kanamycin selection, DiMSum; sequences stand for … in CUCUCU…GGAGGGAAAAGUUAUCAGGCAUGCACCUGGUAGCUAGUCUUUAAACCAAUAGAUUGCAUCGGUUUAAAAGGCAAGACCGUCAAAUUGCGGGAAAGGGGUCAACAGCCGUUCAGUACCAAGUCUCAGGGGAAACUUUGAGAUGGCCUUGCAAAGGGUAUGGUAAUAAGCUGACGGACAUGGUCCUAACCACGCAGCCAAGUCCUAAGUCAACAGAUCUUCUGUUGAUAUGGAUGCAGUUCACAGACUAAAUGUCGGUCGGGGAAGAUGUAUUCUUCUCAUAAGAUAUAGUCGGACCUCUCCUUAAUGGGAGCUAGCGGAUGAAGUGAUGCAACACUGGAGCCGCUGGGAACUAAUUUGUAUGCGAAAGUAUAUUGAUUAGUUUUGGAGUACUCGUGGUCG
Method in brief: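 Library with all eight P1ex-region intron nucleotides randomised, intron inside the knt kanamycin-resistance gene on pET-22b(+), in E. coli BL21(DE3). Cells grew overnight at 37°C or 30°C on LB agar with or without 25 μg/mL kanamycin (plus 100 μg/mL carbenicillin, 50 μM IPTG, 0.2% rhamnose), in six replicate transformations. Pooled colonies were amplicon-sequenced on Illumina HiSeq 2500. DiMSum fitness is the error-weighted combination of wild-type-normalised replicate fold changes, kanamycin versus none.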

| Sequence | self-splicing fitness (ln) (30 °C) | self-splicing fitness (ln) (37 °C) |
| --- | --- | --- |
| GAGAAGCAAUAUUACGCACC | -1.91 ± 0.28 | -1.41 ± 0.42 |
| GAGAAGCAAUAUUACGCAUC | -3.12 ± 0.43 | -2.6 ± 0.35 |
| GAGAAGCAAUAUUACGCCAC |  | -0.779 ± 0.37 |
| GAGAAGCAAUAUUACGCCUU | -2.46 ± 0.26 | -0.767 ± 0.27 |
| GAGAAGCAAUAUUACGCUGU | -3.35 ± 0.3 | -1.45 ± 0.29 |
| GAGAAGCAAUAUUACGCUUG | -2.34 ± 0.1 | -0.658 ± 0.13 |
| GAGAAGCAAUAUUACGGGGC | -3.04 ± 0.19 | -3.05 ± 0.23 |
| GAGAAGCAAUAUUACGUGUG | -2.18 ± 0.12 | -1.96 ± 0.15 |
| GAGAAGCAAUAUUACGUUAU | -3.33 ± 0.19 | -2.47 ± 0.16 |
| GAGAAGCAAUAUUACGUUGA | -3.28 ± 0.21 | -1.19 ± 0.17 |
| GAGAAGCAAUAUUACGUUGC | -3.47 ± 0.24 | -3.31 ± 0.31 |
| GAGCAGCAAUAUUACGAACA | -1.47 ± 0.12 | -1.07 ± 0.15 |
| GAGCAGCAAUAUUACGACUU | -0.557 ± 0.11 | -0.841 ± 0.14 |
| GAGCAGCAAUAUUACGAGGG |  | -2.81 ± 0.38 |
| GAGCAGCAAUAUUACGAUCA | -2.14 ± 0.15 | -1.99 ± 0.15 |
| GAGCAGCAAUAUUACGAUUA | -2.26 ± 0.15 | -1.13 ± 0.12 |
| GAGCAGCAAUAUUACGCAGU | -3.57 ± 0.2 | -1.4 ± 0.17 |
| GAGCAGCAAUAUUACGCCAA | -1.55 ± 0.29 | -1.43 ± 0.31 |
| GAGCAGCAAUAUUACGCCGG | -4.11 ± 0.39 | -1.82 ± 0.3 |
| GAGCAGCAAUAUUACGCGAC | -3.05 ± 0.49 | -1.13 ± 0.29 |
| GAGCAGCAAUAUUACGCUAG | -2.4 ± 0.14 | -1.53 ± 0.17 |
| GAGCAGCAAUAUUACGCUAU | -2.73 ± 0.27 | -1.93 ± 0.17 |
| GAGCAGCAAUAUUACGCUCA | -2.14 ± 0.2 | -1.91 ± 0.16 |
| GAGCAGCAAUAUUACGCUGG | -3 ± 0.16 | -1.47 ± 0.16 |
| GAGCAGCAAUAUUACGGAGC | -3.14 ± 0.13 | -0.471 ± 0.11 |

| Sequence | self-splicing fitness (ln) (30 °C) | self-splicing fitness (ln) (37 °C) |
| --- | --- | --- |
| GAGCAGCAAUAUUACGGCAA | -0.276 ± 0.062 | -0.126 ± 0.072 |
| GAGCAGCAAUAUUACGGCGA | -1.21 ± 0.099 | -0.604 ± 0.11 |
| GAGCAGCAAUAUUACGGUAU | -2.9 ± 0.11 | -1.34 ± 0.1 |
| GAGCAGCAAUAUUACGGUGG | -3.9 ± 0.2 | -2.31 ± 0.16 |
| GAGCAGCAAUAUUACGGUUG | -3.18 ± 0.17 | -1.99 ± 0.16 |
| GAGCAGCAAUAUUACGUAUA | -3.2 ± 0.27 | -2.97 ± 0.27 |
| GAGCAGCAAUAUUACGUAUG | -2.86 ± 0.14 | -2.5 ± 0.2 |
| GAGCAGCAAUAUUACGUCAC | -3.67 ± 0.18 | -1.3 ± 0.17 |
| GAGCAGCAAUAUUACGUGUC | -2.9 ± 0.12 | -2.01 ± 0.12 |
| GAGGAGCAAUAUUACGAGUG | -2.88 ± 0.35 | -2.5 ± 0.23 |
| GAGGAGCAAUAUUACGCAUG | -3.19 ± 0.48 | -2.65 ± 0.3 |
| GAGGAGCAAUAUUACGCUCG | -1.49 ± 0.14 | -1.26 ± 0.22 |
| GAGGAGCAAUAUUACGCUUC |  | -3.68 ± 0.46 |
| GAGGAGCAAUAUUACGCUUG | -1.28 ± 0.15 | -1.27 ± 0.2 |
| GAGGAGCAAUAUUACGGCCG |  | -1.55 ± 0.39 |
| GAGGAGCAAUAUUACGGCUU | -3.52 ± 0.37 | -2.39 ± 0.25 |
| GAGGAGCAAUAUUACGGGUG | -3.55 ± 0.27 | -1.95 ± 0.32 |
| GAGGAGCAAUAUUACGGUCC | -2.95 ± 0.16 | -0.994 ± 0.2 |
| GAGGAGCAAUAUUACGGUUU | -2.44 ± 0.13 | -2.28 ± 0.16 |
| GAGGAGCAAUAUUACGUACU | -2.16 ± 0.16 | -0.205 ± 0.19 |
| GAGGAGCAAUAUUACGUCAA | -2.72 ± 0.31 |  |
| GAGGAGCAAUAUUACGUUGA | -3.73 ± 0.42 | -2.24 ± 0.33 |
| GAGUAGCAAUAUUACGAAAG |  | -1.2 ± 0.3 |
| GAGUAGCAAUAUUACGACCU | 0.288 ± 0.14 | -1.02 ± 0.16 |
| GAGUAGCAAUAUUACGAGAC | -3.25 ± 0.43 | -2.95 ± 0.48 |
